B1: Matrilin-1 (Homo sapiens), P21941 (parent)
chain: MRVLSGTSLMLCSLLLLLQALCSPGLAPQSRGHLCRTRPTDLVFVVDSSRSVRPVEFEKVKVFLSQVIESLDVGPNATRVGMVNYASTVKQEFSLRAHVSKAALLQAVRRIQPLSTGTMTGLAIQFAITKAFGDAEGGRSRSPDISKVVIVVTDGRPQDSVQDVSARARASGVELFAIGVGSVDKATLRQIASEPQDEHVDYVESYSVIEKLSRKFQEAFCVVSDLCATGDHDCEQVCISSPGSYTCACHEGFTLNSDGKTCNVCSGGGGSSATDLVFLIDGSKSVRPENFELVKKFISQIVDTLDVSDKLAQVGLVQYSSSVRQEFPLGRFHTKKDIKAAVRNMSYMEKGTMTGAALKYLIDNSFTVSSGARPGAQKVGIVFTDGRSQDYINDAAKKAKDLGFKMFAVGVGNAVEDELREIASEPVAEHYFYTADFKTINQIGKKLQKKICVEEDPCACESLVKFQAKVEGLLQALTRKLEAVSKRLAILENTVV

Variants of: B1
Settings: with co2a1_bovin COL2A1, P02459
Chain of co2a1_bovin COL2A1, P02459 (P02459 whole entry): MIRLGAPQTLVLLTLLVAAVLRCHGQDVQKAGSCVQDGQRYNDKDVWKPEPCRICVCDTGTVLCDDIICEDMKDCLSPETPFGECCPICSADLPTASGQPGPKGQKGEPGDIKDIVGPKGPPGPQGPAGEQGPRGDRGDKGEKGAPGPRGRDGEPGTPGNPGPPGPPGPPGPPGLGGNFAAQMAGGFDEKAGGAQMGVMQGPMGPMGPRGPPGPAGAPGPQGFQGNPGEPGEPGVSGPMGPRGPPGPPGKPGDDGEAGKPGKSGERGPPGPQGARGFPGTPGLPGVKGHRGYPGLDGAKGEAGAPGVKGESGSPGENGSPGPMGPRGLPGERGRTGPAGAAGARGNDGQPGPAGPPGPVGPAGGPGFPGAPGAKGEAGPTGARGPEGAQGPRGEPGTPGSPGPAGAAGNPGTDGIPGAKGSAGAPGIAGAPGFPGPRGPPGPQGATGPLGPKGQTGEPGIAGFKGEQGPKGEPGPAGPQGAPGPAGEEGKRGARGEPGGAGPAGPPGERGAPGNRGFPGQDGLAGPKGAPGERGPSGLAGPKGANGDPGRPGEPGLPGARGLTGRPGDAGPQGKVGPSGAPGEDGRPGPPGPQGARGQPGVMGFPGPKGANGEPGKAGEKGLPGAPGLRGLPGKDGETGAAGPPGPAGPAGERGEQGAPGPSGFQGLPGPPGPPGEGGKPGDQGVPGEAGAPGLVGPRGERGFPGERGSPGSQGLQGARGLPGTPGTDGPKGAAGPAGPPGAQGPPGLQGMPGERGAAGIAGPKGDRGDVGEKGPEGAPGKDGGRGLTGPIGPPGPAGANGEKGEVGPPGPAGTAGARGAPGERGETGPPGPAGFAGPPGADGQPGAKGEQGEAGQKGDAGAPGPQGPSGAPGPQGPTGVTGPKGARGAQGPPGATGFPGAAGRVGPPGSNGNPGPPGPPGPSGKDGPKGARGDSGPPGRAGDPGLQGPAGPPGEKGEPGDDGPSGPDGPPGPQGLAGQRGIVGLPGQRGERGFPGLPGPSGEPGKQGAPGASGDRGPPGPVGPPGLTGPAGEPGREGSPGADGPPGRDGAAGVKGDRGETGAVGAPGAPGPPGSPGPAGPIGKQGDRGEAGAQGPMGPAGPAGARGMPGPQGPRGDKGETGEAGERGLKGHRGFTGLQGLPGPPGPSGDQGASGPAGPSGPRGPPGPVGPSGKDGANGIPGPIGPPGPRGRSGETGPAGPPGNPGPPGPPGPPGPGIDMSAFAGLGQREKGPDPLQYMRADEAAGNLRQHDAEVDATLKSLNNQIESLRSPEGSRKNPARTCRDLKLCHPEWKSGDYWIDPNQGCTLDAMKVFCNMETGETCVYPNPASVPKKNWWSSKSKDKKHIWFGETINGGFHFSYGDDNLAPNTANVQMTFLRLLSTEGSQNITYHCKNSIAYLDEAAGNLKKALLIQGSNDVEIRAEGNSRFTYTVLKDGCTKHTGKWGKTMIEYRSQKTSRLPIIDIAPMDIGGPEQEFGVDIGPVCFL

| effect of a mutation on the interaction | Variant |
| --- | --- |
| with no effect | N344A |

Variants of: B1
Settings: with co2a1_bovin COL2A1, P02459
Remark: another data set of the same source

| effect of a mutation on the interaction | Variant |
| --- | --- |
| increasing interaction strength | N76A |

Reference: IntAct's records for PubMed 20729554
